{"source": "paper PMC10246534", "about": "(Nature Communications, 2023)", "binders": {"B1": {"name": "imdevimab (antibody, V domains shown)", "VH": "QVQLVESGGGVVQPGRSLRLSCAASGFTFSNYAMYWVRQAPGKGLEWVAVISYDGSNKYYADSVKGRFTISRDNSKNTLYLQMNSLRTEDTAVYYCASGSDYGDYLLVYWGQGTLVTVSS", "VL": "QSALTQPASVSGSPGQSITISCTGTSSDVGGYNYVSWYQQHPGKAPKLMIYDVSKRPSGVSNRFSGSKSGNTASLTISGLQSEDEADYYCNSLTSISTWVFGGGTKLTVL", "notes": "source: Regeneron"}, "B2": {"name": "casirivimab (antibody, V domains shown)", "VH": "QVQLVESGGGLVKPGGSLRLSCAASGFTFSDYYMSWIRQAPGKGLEWVSYITYSGSTIYYADSVKGRFTISRDNAKSSLYLQMNSLRAEDTAVYYCARDRGTTMVPFDYWGQGTLVTVSS", "VL": "DIQMTQSPSSLSASVGDRVTITCQASQDITNYLNWYQQKPGKAPKLLIYAASNLETGVPSRFSGSGSGTDFTFTISGLQPEDIATYYCQQYDNLPLTFGGGTKVEIK", "notes": "source: Regeneron"}}, "biological_target": "Delta RBD WT (SARS-CoV-2, Delta variant (B.1.617.2), L452R)", "assay": "SPR; Biacore T200; […]; HBS-EP, 25 °C; 1:1 binding model", "settings": "both partners purified"}
{"binder": "B1", "values": [{"measurement": "Kd", "value": 9.4, "unit": "nM"}]}
{"binder": "B2", "values": [{"measurement": "Kd", "value": 0.36, "unit": "nM"}]}
